# Reference: the DeepSol protein solubility set
# Experiment: soluble on expression in E. coli; label from the status in PepcDB or PDB records
row,Sequence,soluble on expression in E. coli
1,GPHMASMLEAKFEEASLFKRIIDGFKDCVQLVNFQCKEDGIIAQAVDDSRVLLVSLEIGVEAFQEYRCDHPVTLGMDLTSLSKILRCGNNTDTLTLIADNTPDSIILLFEDTKKDRIAEYSLKLMDIDADFLKIEELQYDSTLSLPSSEFSKIVRDLSQLSDSINIMITKETIKFVADGDIGSGSVIIKPFVDMEHPETSIKLEMDQPVDLTFGAKYLLDIIKGSSLSDRVGIRLSSEAPALFQFDLKSGFLQFFLAPKFNDEGSNSQSNGSGALEAKFEEASLFKRIIDGFKDCVQLVNFQCKEDGIIAQAVDDSRVLLVSLEIGVEAFQEYRCDHPVTLGMDLTSLSKILRCGNNTDTLTLIADNTPDSIILLFEDTKKDRIAEYSLKLMDIDADFLKIEELQYDSTLSLPSSEFSKIVRDLSQLSDSINIMITKETIKFVADGDIGSGSVIIKPFVDMEHPETSIKLEMDQPVDLTFGAKYLLDIIKGSSLSDRVGIRLSSEAPALFQFDLKSGFLQFFLAPKFNDEGSNSQASNSGALEAKFEEASLFKRIIDGFKDCVQLVNFQCKEDGIIAQAVDDSRVLLVSLEIGVEAFQEYRCDHPVTLGMDLTSLSKILRCGNNTDTLTLIADNTPDSIILLFEDTKKDRIAEYSLKLMDIDADFLKIEELQYDSTLSLPSSEFSKIVRDLSQLSDSINIMITKETIKFVADGDIGSGSVIIKPFVDMEHPETSIKLEMDQPVDLTFGAKYLLDIIKGSSLSDRVGIRLSSEAPALFQFDLKSGFLQFFLAPKFNDEE,soluble
2,GPLGSGDVQVTEDAVRRYLTRKPMTTKDLLKKFQTKKTGLSSEQTVNVLAQILKRLNPERKMINDKMHFSLKE,soluble
3,GPLGSHENCQSPSMKRSRCTNYSFRTLTLSTAEYTKVVEFLAREAKVPRYTWVPTQVVSHILPTEGLERFLTAIKAGHDSVLFNANGIYTMGDMIREFEKHNDIFERIGIDSSKLSKYYEAFLSFYRIQEAMKLPK,soluble
4,GPLGSMKLRVENPKKAQKHFVQNLNNVVFTNKELEDIYNLSNKEETKEVLKLFKLKVNQFYRHAFGIVNDYNGLLEYKEIFNMMFLKLSVVFDTQRKEANNVEQIKRNIAILDEIMAKADNDLSYFISQNKNFQELWDKAVKLTKEMKIKLKGQKLDLRDGEVAINKVRELFGSDKNVKELWWFRSLLVKGVYLIKRYYEGDIELATTSDFAKAVFE,soluble
5,GPLGSMKPINIQDQFLNQIRKENTYVTVFLLNGFQLRGQVKGFDNFTVLLESEGKQQLIYKHAISTFAPQKNVQLELE,soluble
6,GPLGSPQFMNPAAEAEFNILLATDSYKVTHYKQYPPNTSKVYSYFECREKKTENSKLRKVKYEETVFYGLQYILNKYLKGKVVTKEKIQEAKDVYKEHFQDDVFNEKGWNYILEKYDGHLPIEIKAVPEGFVIPRGNVLFTVENTDPECYWLTNWIETILVQSWYPITVATNSREQKKILAKYLLETSGNLDGLEYKLHDFGYRGVSSQETAGIGASAHLVNFKGTDTVAGLALIKKYYGTKDPVPGYSVPAAEHSTITAWGKDHEKDAFEHIVTQFSSVPVSVVSDSYDIYNACEKIWGEDLRHLIVSRSTQAPLIIRPDSGNPLDTVLKVLEILGKKFPVTENSKGYKLLPPYLRVIQGDGVDINTLQEIVEGMKQKMWSIENIAFGSGGGLLQKLTRDLLNCSFKCSYVVTNGLGINVFKDPVADPNKRSKKGRLSLHRTPAGNFVTLEEGKGDLEEYGQDLLHTVFKNGKVTKSYSFDEIRKNAQLNIELEAAHH,soluble
7,GPMSAQDVENAVEAALDPSVGPIIKQQATDFIGSLRSSSTGWKICHEIFSEKTKYKPSTRLICLQTLSEKVREWNNESNLLELQMIRDSVWSYIKELSFLDEPAYISNAVQHLLTLLFLQLYPSNWNDFFASLQGVIAASSQSEFSNFYLKVLLSIGDEIADSLVLKTDVQIQKDNLVKDAIRANDMSDIVSFVYEMMLAYSNAKNYGTVGLCLQVYAQWVSWININLIVNEPCMNLLYSFLQIEELRCAACETMTEIVNKKMKPLEKLNLLNILNLNLFFSKSQEQSTDPNFDEHVAKLINAQGVELVAIKSDPSELSPELKENCSFQLYNLFPYLIRYLSDDYDETSTAVFPFLSDLLVSLRKESSSKELSASLKEFLKSLLEAIIKKMKYDESQEWDDDPDSEEEAEFQEMRKKLKIFQDTINSIDSSLFSSYMYSAITSSLSTAATLSPENSWQLIEFALYETYIFGEGLRGPDAFFNEVDKSPTVLSQILALVTTSQVCRHPHPLVQLLYMEILVRYASFFDYESAAIPALIEYFVGPRGIHNTNERVRPRAWYLFYRFVKSIKKQVVNYTESSLAMLGDLLNISVSPVTDMDAPVPTLNSSIRNSDFNSQLYLFETVGVLISSGNLTPEEQALYCDSLINALIGKANAALSSDLSALENIISVYCSLMAIGNFAKGFPARGSEEVAWLASFNKASDEIFLILDRMGFNEDIRGAVRFTSGRIINVVGPDMLPKVPQLISILLNSIDMNELVDVLSFISQLIHIYKDNMMEITNRMLPTLLMRIFSSLSAAPQGTDDAVKQNDLRKSYISFILQLLNKGFGSILFTEENQVYFDPLINSILHFANLVGEPATQKSSIALVSKMVSLWGGKDGIAGFENFTLSLTPLCFEMPVNPNFNTRDGQSLVVLGELAGLQKIILEKLGDIYKSYLVTVYFPTVNFPDVMASEYLQALSNLDSRSFKQFFQKFIQALKSGNV,soluble
8,GPPPPPGPPPPPGPPPPPGL,soluble
9,GQDTGEDNLAIKGITTLNDLTMVNVSGPGMKGMVGMASRVFGAMSSAGVSIVLITQSSSEYSISFCIEADDKLKAQQVLADAFELELKDGLLEPVDFIDDVSIVTLVGDGMRTSRGVASRFFSSLAEVNVNIVAIAQGSSERAISAVIPEDKISEAIKACHENLFNSKYF,not soluble
10,GQSGPLPKPSLQALPSSLVPLEKPVTLRCQGPPGVDLYRLEKLSSSRYQDQAVLFIPAMKRSLAGRYRCSYQNGSLWSLPSDQLELVATGVFAKPSLSAQPGPAVSSGGDVTLQCQTRYGFDQFALYKEGDPAPYKNPERWYRASFPIITVTAAHSGTYRCYSFSSRDPYLWSAPSDPLELVVT,soluble
11,GQYDYIKVAVSLMGSAYYVDFAKELSKYALAQGLTFPYDVDERILALQKYDLTQNITKINNRPLLLWHGKKDDVVPFAYSEKLYQTLVEESLADNVEFIIDDNAKHKVSVEGMLQGVSFFEKFL,not soluble
12,GRDGNNLNNPVLLLDTFDFGPREDNWFFYPGGNIGLYCPYSSKGAPEEDSAMVFVSNEVGEHSITTRDLSVNENTIIQFEINVGCSTDSSSADPVRLEFSRDFGATWHLLLPLCYHSSSLVSSLCSTEHHPSSTYYAGTTQGWRREVVHFGKLHLAGSVRFRWYQGFYPAGSQPVTWAIDNVYIGPQCEEMCYGHGSCINGTKCICDPGYSGPTCKISTKNPDFLKDDFEGQLESDRFLLMSGGKPSRKCGILSSGNNLFFNEDGLRMLVTRDLDLSHARFVQFFMRLGCGKGVPDPRSQPVLLQYSLNGGLSWSLLQEFLFSNSSNVGRYIALEMPLKARSGSTRLRWWQPSENGHFYSPWVIDQILIGGNISGNTVLEDDFSTLDSRKWLLHPGGTKMPVCGSTGDALVFIEKASTRYVVTTDIAVNEDSFLQIDFAASCSVTDSCYAIELEYSVDLGLSWHPLVRDCLPTNVECSRYHLQRILVSDTFNKWTRITLPLPSYTRSQATRFRWHQPAPFDKQQTWAIDNVYIGDGCLDMCSGHGRCVQGSCVCDEQWGGLYCDEPETSLPTQLKDNFNRAPSNQNWLTVSGGKLSTVCGAVASGLALHFSGGCSRLLVTVDLNLTNAEFIQFYFMYGCLITPSNRNQGVLLEYSVNGGITWNLLMEIFYDQYSKPGFVNILLPPDAKEIATRFRWWQPRHDGLDQNDWAIDNVLISRLENLYFQ,soluble
13,GRWILKNDVKNRSVYIKGFPTDATLDDIKEWLEDKGQVLNIQMRRTLHKAFKGSIFVVFDSIESAKKFVETPGQKYKETDLLILFKDDYFAKKNEERKQNKVE,soluble
14,GSDPGPEAARLRFRCFHYEEATGPQEALAQLRELCRQWLRPEVRSKEQMLELLVLEQFLGALPPEIQARVQGQRPGSPEEAAALVDGLRREPGG,soluble
15,GSGEQHFAEGHEQAFTGKESAAMKDVVSGHATHEAGKSTTAQPTETRSTSESSHSLRDSIMAQVRDAVTTREPNGNGRISIRLNPVELGELTINVRVADQQVKVDVVAANGQVRDILLNNLDNLKENFSRQNLTMTGFDVSTGT,not soluble
16,GSGTGAGEGHEGYVTRKHEWDSTTKKASNRSWDKVYMAAKAGRISFYKDQKGYKSNPELTFRGEPSYDLQNAAIEIASDYTKKKHVLRVKLANGALFLLQAHDDTEMSQWVTSLKAQSDSTA,soluble
17,GSHEATVEYLADLVKEKKHLTLFPHMFSNVERLLDDEIGRVRVALFQTEFPRVELPEPAG,soluble
18,GSHMASMTGGQQMGRGSGSHMASMTGGQQMGRGSRVGEQSQAGDPGLVSAYGPGLEGGTTGVSSEFIVNTLNAGSGALSVTIDGPSKVQLDCRECPEGHVVTYTPMAPGNYLIAIKYGGPQHIVGSPFKAKVTGPRLS,soluble
19,GSHMDASKIDQPDLAEVANASLDKKQVIGRISIPSVSLELPVLKSSTEKNLLSGAATVKENQVMGKGNYALAGHNMSKKGVLFSDIASLKKGDKIYLYDNENEYEYAVTGVSEVTPDKWEVVEDHGKDEITLITCVSVKDNSKRYVVAGDLVGTKAKK,soluble
20,GSHMEEKLAVSLQEALQEGDTRALREVLEEIHPQDLLALWDELKGEHRYVVLTLLPKAKAAEVLSHLSPEEQAEYLKTLPPWRLREILEELSLDDLADALQAVRKEDPAYFQRLKDLLDPRTRAEVEALARYEEDEAGGLMTPEYVAVREGMTVEEVLRFLRRAAPDAETIYYIYVVDEKGRLKGVLSLRDLIVADPRTRVAEIMNPKVVYVRTDTDQEEVARLMADYDFTVLPVVDEEGRLVGIVTVDDVLDVLEAEATEDIHKLGAVDVPDLVYSE,soluble
21,GSHMESGYAQNGDLEDAELDDYSFSCYSQLEVNGSQHSLTCAFEDPDVNTTNLEFEICGALVEVKCLNFRKLQEIYFIETKKFLLIGKSNICVKVGEKSLTCKKIDLTTIVKPEAPFDLSVVYREGANDFVVTFNTSHLQKKYVKVLMHDVAYRQEKDENKWTHVNLSSTKLTLLQRKLQPAAMYEIKVRSIPDHYFKGFWSEWSPSYYFRTPEINNSSGEMD,soluble
22,GSHMIKVLSPAKINLGLWVLGRLPSGYHEILTLYQEIPFYDEIYIREGVLRVETNIGIPQEENLVYKGLREFERITGIEINYSIFIQKNIPPGAGLGGGSSNLAVVLKKVNELLGSPLSEEELRELVGSISADAPFFLLGKSAIGRGKGEVLEPVETEISGKITLVIPQVSSSTGRVYSSLREEHFVTPEYAEEKIQRIISGEVEEIENVLGDIARELYPEINEVYRFVEYLGFKPFVSGSGSTVYFFGGASEELKKAAKMRGWKVVELEL,soluble
23,GSHMKNSVSVDLPGSMKVLVSKSSNADGKYDLIATVDALELSGTSDKNNGSGVLEGVKADASKVKLTISDDLGQTTLEVFKSDGSTLVSKKVTRADGTRLEYTGIKSDGSGKAKEVLKGYVLEGTLTAEKTTLVVKEGTVTLSKNISKSGEVSVELNDTDSSAATKKTAAWNSGTSTLTITVNSKKTKDLVFTSSNTITVQQYDSNGTSLEGSAVEITKLDEIKNALK,soluble
24,GSHMLEDPQRRIRRPFSVAEVEALVQAVEKLGTGRWRDVKLCAFEDADHRTYVDLKDKWKTLVHTAKISPQQRRGEPVPQELLNRVLNAHGYWTQQQMQQLQQNV,soluble
